Source: publication PMC3164694

Biological target: gelatin layer (gelatin coated glass coverslips)
Assay: not stated; unpublished data (Collier and Goldberg); affinity for gelatin

fold higher affinity of the dimer for gelatin: 10 fold
Substance: MMP-9 pro-enzyme homo-dimer (complex)
